The target of assay [1] is UU72 (Clostridium tetani (tetanus toxin)).
Assay [2] concerns the target UU73 (Clostridium tetani (tetanus toxin)).
Assay [3] has as its target UU74 (Clostridium tetani (tetanus toxin)).
Assay [4] addresses UU71 (Clostridium tetani (tetanus toxin)).
The target in assay [5] is UU70 (Clostridium tetani (tetanus toxin)).
In assay [6] the target is UU24 (Clostridium tetani (tetanus toxin)).

B1: IBIIICI scFv (scFv)
scFv: EVRLLQSGAALVRPGASVKLSCTASGFNIKDFNIHWVKQRPEQGLEWIGRIDPENGDAEYVPKFQVRATMTTDTSSNTVYLHLSSLTSGDTAVYYCTTGSYDLDVEYWGQGTTLTVSSGGGGSGGGGSGGGGSGGGGSELQMTQSPSSLSASLGDTVTITCHASQNINVWLSWYQQRPGNIPKLLIYKASTLHTGVPSRFRGSGSGTGFTLTISSLQPEDIATYYCQQGQSYPLTFGAGTKLELK
With B1, the dissociation rate constant (koff) in assay [1] was less than 1e-05 s⁻¹; in assay [2], 6.7e-05 s⁻¹; in assay [3], 3.3e-05 s⁻¹; in assay [4] it was less than 1e-05 s⁻¹; in assay [5] it was 3.7e-05 s⁻¹; in assay [6], 2.3e-05 s⁻¹. The kon was determined as 250000 M⁻¹ s⁻¹ in assay [1]; 200000 M⁻¹ s⁻¹ in assay [2]; 280000 M⁻¹ s⁻¹ in assay [3]; 230000 M⁻¹ s⁻¹ in assay [4]; 230000 M⁻¹ s⁻¹ in assay [5]; 190000 M⁻¹ s⁻¹ in assay [6]. The Kd amounted to 0.34 nM in assay [2], 0.12 nM in assay [3], 0.16 nM in assay [5] and 0.12 nM in assay [6].

B2: 14GIIICII scFv (scFv)
scFv: QVQLQQPGAELVMPGASVNLSCKASGYTFTDYWMHWVKQRPGQGLEWIGEIDPSDNFSNLNQNFRGKATLTVDKSSRTAFLQLSSLTSEDSAVYYCAVEDYWGQGTTLTVSSGGGGSGGGGSGGGGSGGGGSDIVMTQATPSVLVTPGEAVSISCRASRSLLHSNGITYLYWFLQRPGQSPQVLIYRMSNLVSGVPDRFSGSGSGTAFTLRISRVEAEDVGVYYCMQHLEFPYTFGGGTKLEIK
Turning to B2, the dissociation constant Kd was 0.6 nM in assay [1]; 0.87 nM in assay [2]; 1.7 nM in assay [3]; 0.6 nM in assay [4]; 0.29 nM in assay [5]; 0.3 nM in assay [6]. Besides, the off-rate (koff) in assay [1] amounted to 0.00034 s⁻¹; in assay [2], 0.00044 s⁻¹; in assay [3] it was 0.00095 s⁻¹; in assay [4], 0.00032 s⁻¹; in assay [5], 0.00019 s⁻¹; in assay [6], 0.0002 s⁻¹. Also, the on-rate constant (kon) in assay [1] came to 570000 M⁻¹ s⁻¹; in assay [2] it was 510000 M⁻¹ s⁻¹; in assay [3], 570000 M⁻¹ s⁻¹; in assay [4] it was 540000 M⁻¹ s⁻¹; in assay [5], 650000 M⁻¹ s⁻¹; in assay [6] it was 660000 M⁻¹ s⁻¹.

What is called koff is the first-order rate constant of dissociation. A high value points to a short-lived complex. The kon is the rate constant with which the complex forms. Usually Kd stands for the constant that tells how readily two partners part at equilibrium. Low values mean a tighter complex, high ones a looser complex.
